Data reported in article PMC8354235 (Journal of Virology, 2021).
Where “and” joins values, the source holds several entries; their conditions need not be identical. Equal values may be shown once.

Legend:
[1] = target: T1, histidine-tagged soluble extracellular domain of human transferrin receptor 1 (sTfR1) from BHK cells (human, UniProt P02786); assay: BLI; conditions: both partners purified
T1 construct: also called hTfR1; sTfR1-His

[2] = target: T1, histidine-tagged soluble extracellular …; assay: ELISA; conditions: both partners purified

T1 sequence (P02786 89-760): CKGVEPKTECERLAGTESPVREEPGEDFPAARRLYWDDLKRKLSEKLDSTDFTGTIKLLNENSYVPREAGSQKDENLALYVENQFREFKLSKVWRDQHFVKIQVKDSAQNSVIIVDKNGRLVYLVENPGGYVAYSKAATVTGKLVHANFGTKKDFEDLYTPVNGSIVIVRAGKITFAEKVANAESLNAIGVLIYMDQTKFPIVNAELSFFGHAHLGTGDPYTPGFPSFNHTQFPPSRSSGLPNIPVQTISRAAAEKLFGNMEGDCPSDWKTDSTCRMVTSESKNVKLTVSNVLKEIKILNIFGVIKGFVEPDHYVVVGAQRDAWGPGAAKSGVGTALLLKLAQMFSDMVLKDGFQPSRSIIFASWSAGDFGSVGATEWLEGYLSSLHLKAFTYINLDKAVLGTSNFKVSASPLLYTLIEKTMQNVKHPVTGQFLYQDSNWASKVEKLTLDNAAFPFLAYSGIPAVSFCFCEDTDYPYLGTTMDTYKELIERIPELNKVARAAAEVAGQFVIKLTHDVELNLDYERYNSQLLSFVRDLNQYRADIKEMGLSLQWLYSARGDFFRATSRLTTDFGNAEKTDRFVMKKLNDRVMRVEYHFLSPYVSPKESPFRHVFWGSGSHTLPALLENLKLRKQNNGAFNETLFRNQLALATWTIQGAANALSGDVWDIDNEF

Binder | Kd [1] | koff [1] | EC50 [2]
OKT9 antigen binding fragment (OKT9-Fab) (Fab, V domains shown, also called Fab OKT9; OKT9 variable region) VH: QIQLQQSGPELVKPGTSMNISCKASGYTFTNYYMHWVRQRPGQGLEWIGWIYPGDGNTHYNEKFKGKTTLTADTSSITAYMLLSSLTSEDSAVYFCARDNSGYVGFPYWGQGTLVTVSA VL: DIVMTQSPSSLTVTAGERVTMSCKSSQSLFNSANQENYLTWYQQRPGQPPKLLIYWASTRDSGVPDRFTGSGSGTDFTLTISSVQAEDLAVYYCQNDYSYPLTFGAGTKLELK | 4.9 nM and 4.78 nM and 4.76 nM and 4.82 nM | 0.0012 s⁻¹ and 0.00125 s⁻¹ and 0.00114 s⁻¹ | 3.69 nM and ~3.66 nM
murine monoclonal antibody OKT9 (full-length IgG1) (antibody, V domains shown, also called full-length OKT9) VH: QIQLQQSGPELVKPGTSMNISCKASGYTFTNYYMHWVRQRPGQGLEWIGWIYPGDGNTHYNEKFKGKTTLTADTSSITAYMLLSSLTSEDSAVYFCARDNSGYVGFPYWGQGTLVTVSA VL: DIVMTQSPSSLTVTAGERVTMSCKSSQSLFNSANQENYLTWYQQRPGQPPKLLIYWASTRDSGVPDRFTGSGSGTDFTLTISSVQAEDLAVYYCQNDYSYPLTFGAGTKLELK | – | – | 0.411 nM
